Measured values from the supplement of paper PMC10724198.
± gives the standard deviation of the averaged measurements.

What was measured:
Assay in all cases: protein stability index of tFT-peptide fusion (C-terminal peptide) (PSI (0-1 scale)); higher = more stable (slower turnover)
[1] = tested on: Saccharomyces cerevisiae; conditions: temperature: 30 C
Experimental: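 MPS profiling in S. cerevisiae of the yeast C-terminome library: the last 12 aa of each annotated ORF are fused to the C-terminus of a sfGFP-mCherry timer, after a GGGS linker. Cells are FACS-sorted into 8 mCherry/sfGFP bins and deep-sequenced. PSI runs from 0 (unstable) to 1 (stable); wild type and das1Δ backgrounds, two technical replicates each.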

[2] = tested on: Saccharomyces cerevisiae; conditions: genetic background: wild type; temperature: 30 C
[3] = tested on: Saccharomyces cerevisiae
Experimental: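 MPS profiling in S. cerevisiae of the tFT-X12 degron library: putative degron peptides plus stable controls, 12 aa, fused to the C-terminus of a sfGFP-mCherry timer. Cells are FACS-sorted into 8 mCherry/sfGFP bins and deep-sequenced. PSI runs from 0 (unstable) to 1 (stable). Backgrounds are wild type, das1Δ and doa10Δ at 30 °C, and wild type, das1Δ, cdc34-1 and cdc53-1 at 37 °C; 2-3 technical replicates each.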

[4] = genetic background: cdc34-1, temperature: 37 C
[5] = genetic background: cdc53-1, temperature: 37 C
[6] = genetic background: das1 deletion, temperature: 30 C
[7] = genetic background: das1 deletion, temperature: 37 C
[8] = genetic background: doa10 deletion, temperature: 30 C
[9] = genetic background: wild type, temperature: 30 C
[10] = genetic background: wild type, temperature: 37 C

Sequence	protein stability index ([1]; genetic background: das1 deletion)	protein stability index ([1]; genetic background: wild type)	protein stability index [2]	protein stability index [3, 4]	protein stability index [3, 5]	protein stability index [3, 6]	protein stability index [3, 7]	protein stability index [3, 8]	protein stability index [3, 9]	protein stability index [3, 10]
AATNNLFIFSAL [CDC55 C-terminal 12 aa]	0.732 ± 0.0084	0.713 ± 0.073								
VIWVLGALASWG			0.556 ± 0.098	0.5892 ± 0.0018	0.6304 ± 0.0041	0.479 ± 0.035	0.632 ± 0.011	0.468 ± 0.02	0.479 ± 0.0059	0.618 ± 0.015
VKVIILYKIIEV			0.381 ± 0.038	0.353 ± 0.045	0.494 ± 0.044	0.327 ± 0.029	0.5352 ± 0.0045	0.29 ± 0.0094	0.323 ± 0.027	0.549 ± 0.08
VLAYFCYVVFVI			0.314 ± 0.016	0.306 ± 0.01	0.343 ± 0.0056	0.27 ± 0.0087	0.3896 ± 0.0036	0.291 ± 0.0044	0.263 ± 0.011	0.354 ± 0.0069
VLCMSIFIVFGI			0.371 ± 0.052	0.197 ± 0.031	0.287 ± 0.023	0.195 ± 0.024	0.352 ± 0.019	0.1774 ± 0.0013	0.196 ± 0.011	0.303 ± 0.011
VLLLLGGIVCVM			0.327 ± 0.026	0.236 ± 0.01	0.227 ± 0.018	0.222 ± 0.024	0.412 ± 0.0065	0.206 ± 0.012	0.229 ± 0.018	0.395 ± 0.019
VLLLRRPLLVFS			0.244 ± 0.021	0.0781 ± 0.025	0.105 ± 0.037	0.149 ± 0.028	0.229 ± 0.014	0.128 ± 0.017	0.148 ± 0.024	0.187 ± 0.0061
VLLVRIFLCWVC			0.16 ± 0.039	0.178 ± 0.013	0.256 ± 0.049	0.184 ± 0.017	0.338 ± 0.0097	0.13 ± 0.0046	0.118 ± 0.016	0.1826 ± 0.001
VLLYRIAPRLLH			0.303 ± 0.03	0.597 ± 0.079	0.6841 ± 0.0027	0.6298 ± 0.0035	0.735 ± 0.016	0.181 ± 0.019	0.202 ± 0.023	0.4082 ± 0.0026
VLSLYWLIISRL			0.4672 ± 0.00061	0.717 ± 0.04	0.736 ± 0.0093	0.616 ± 0.016	0.742 ± 0.012	0.446 ± 0.021	0.42 ± 0.0056	0.566 ± 0.021
VLVSVSLRVCMV			0.162 ± 0.039	0.0542 ± 0.021	0.101 ± 0.025	0.106 ± 0.03	0.206 ± 0.015	0.083 ± 0.012	0.108 ± 0.024	0.178 ± 0.016
VLVVLRSEVSLS			0.284 ± 0.015	0.286 ± 0.0038	0.398 ± 0.022	0.227 ± 0.027	0.3847 ± 0.0022	0.1948 ± 0.0011	0.22 ± 0.02	0.371 ± 0.0053
VLVVVAFVALPR			0.372 ± 0.016	0.264 ± 0.0083	0.41 ± 0.053	0.285 ± 0.015	0.485 ± 0.035	0.275 ± 0.01	0.282 ± 0.032	0.461 ± 0.031
VLWSCCGGVRVR			0.516 ± 0.036	0.587 ± 0.014	0.629 ± 0.013	0.465 ± 0.023	0.65 ± 0.022	0.452 ± 0.03	0.483 ± 0.0067	0.612 ± 0.018
VLWVYLFLFVIF			0.255 ± 0.05	0.266 ± 0.04	0.291 ± 0.033	0.248 ± 0.022	0.346 ± 0.0079	0.235 ± 0.025	0.211 ± 0.019	0.325 ± 0.019
VLYSRFPPPLIA			0.4803 ± 0.0032	0.51169 ± 7.2e-05	0.537 ± 0.0073	0.43 ± 0.022	0.554 ± 0.02	0.396 ± 0.0062	0.415 ± 0.023	0.5375 ± 0.0029
VMWFVLVGLCIL			0.473 ± 0.033	0.4219 ± 0.0041	0.449 ± 0.035	0.382 ± 0.044	0.506 ± 0.021	0.366 ± 0.0077	0.378 ± 0.018	0.496 ± 0.006
VNTLCCVFRCNL			0.805 ± 0.045	0.96 ± 0.0047	0.9524 ± 0.0023	0.816 ± 0.013	0.889 ± 0.026	0.8247 ± 0.0043	0.826 ± 0.028	0.8905 ± 0.0035
VPRGAALIFLCF			0.517 ± 0.055	0.574 ± 0.043	0.646 ± 0.025	0.53 ± 0.036	0.6215 ± 0.0013	0.449 ± 0.025	0.464 ± 0.023	0.582 ± 0.0063

Sequence	protein stability index ([1]; genetic background: das1 deletion)	protein stability index ([1]; genetic background: wild type)	protein stability index [2]	protein stability index [3, 4]	protein stability index [3, 5]	protein stability index [3, 6]	protein stability index [3, 7]	protein stability index [3, 8]	protein stability index [3, 9]	protein stability index [3, 10]
VPRSLYSVLRLA			0.2 ± 0.025	0.525 ± 0.062	0.685 ± 0.026	0.652 ± 0.044	0.714 ± 0.012	0.0744 ± 0.01	0.0833 ± 0.0025	0.11 ± 0.0054
VPSPWLIRSLMS			0.409 ± 0.023	0.648 ± 0.024	0.687 ± 0.019	0.643 ± 0.037	0.716 ± 0.026	0.224 ± 0.0045	0.278 ± 0.026	0.518 ± 0.039
VQLFCLRREMII			0.381 ± 0.0047	0.544 ± 0.025	0.609 ± 0.009	0.503 ± 0.027	0.583 ± 0.043	0.335 ± 0.0084	0.365 ± 0.019	0.506 ± 0.013
VRELGVGGWRRQ			0.283 ± 0.01	0.58 ± 0.08	0.7 ± 0.0064	0.619 ± 0.016	0.752 ± 0.004	0.11 ± 0.012	0.129 ± 0.012	0.405 ± 0.0063
VRLLLIFRLLVI			0.299 ± 0.09	0.463 ± 0.0077	0.539 ± 0.013	0.417 ± 0.039	0.551 ± 0.0066	0.2909 ± 0.0022	0.267 ± 0.038	0.447 ± 0.02
VRNYWKYVVIFP			0.569 ± 0.15	0.624 ± 0.0047	0.711 ± 0.023	0.617 ± 0.0079	0.7338 ± 0.0065	0.578 ± 0.011	0.569 ± 0.023	0.674 ± 0.068
VSCFIVSFWVFL			0.471 ± 0.012	0.389 ± 0.0086	0.461 ± 0.033	0.355 ± 0.02	0.546 ± 0.008	0.309 ± 0.034	0.323 ± 0.031	0.495 ± 0.052
VSFEFSVLWTVF			0.46 ± 0.018	0.548 ± 0.073	0.592 ± 0.028	0.515 ± 0.022	0.574 ± 0.029	0.384 ± 0.016	0.383 ± 0.017	0.469 ± 0.005
VSLCVVYGLVVG			0.373 ± 0.017	0.337 ± 0.024	0.377 ± 0.022	0.29 ± 0.029	0.446 ± 0.015	0.2523 ± 0.0025	0.289 ± 0.022	0.411 ± 0.0082
VSLIFCLFFLSC			0.442 ± 0.013	0.424 ± 0.0047	0.502 ± 0.044	0.402 ± 0.018	0.52 ± 0.0063	0.395 ± 0.024	0.404 ± 0.027	0.492 ± 0.027
VSTVCLDFSPFL			0.755 ± 0.043	0.692 ± 0.065	0.7662 ± 0.0043	0.65 ± 0.018	0.781 ± 0.017	0.668 ± 0.0078	0.66 ± 0.007	0.73714 ± 5.4e-05
VTSVARVVLHLL			0.3069 ± 0.0026	0.526 ± 0.018	0.681 ± 0.031	0.606 ± 0.027	0.7016 ± 0.0041	0.0931 ± 0.019	0.115 ± 0.021	0.165 ± 0.0027
VVCPCIIYVPGV			0.466 ± 0.022	0.619 ± 0.039	0.643 ± 0.011	0.455 ± 0.014	0.637 ± 0.011	0.455 ± 0.016	0.461 ± 0.0066	0.613 ± 0.021
VVFLLGPLVCGG			0.44 ± 0.025	0.5042 ± 0.0031	0.514 ± 0.018	0.392 ± 0.021	0.535 ± 0.0069	0.375 ± 0.016	0.397 ± 0.019	0.5125 ± 0.0021
VVFVGRSIVVLT			0.419 ± 0.047	0.508 ± 0.019	0.525 ± 0.014	0.358 ± 0.038	0.567 ± 0.019	0.336 ± 0.037	0.371 ± 0.03	0.519 ± 0.019
VVFWFPFVLRCC			0.065 ± 0.017	0.0644 ± 0.019	0.0927 ± 0.0061	0.193 ± 0.03	0.2959 ± 0.0026	0.0639 ± 0.0037	0.0509 ± 0.0053	0.072 ± 0.034
VVFWWGHLLVSA			0.142 ± 0.024	0.03535 ± 6.3e-05	0.0483 ± 0.016	0.118 ± 0.031	0.113 ± 0.009	0.0877 ± 0.021	0.0919 ± 0.021	0.0854 ± 0.0074
VVLVVVWWGGVE			0.3931 ± 0.00072	0.242 ± 0.051	0.421 ± 0.074	0.249 ± 0.034	0.4872 ± 0.0025	0.21 ± 0.003	0.258 ± 0.029	0.403 ± 0.036
VVMASSIIVVAG			0.2528 ± 0.001	0.0539 ± 0.0055	0.0512 ± 0.027	0.11 ± 0.097	0.216 ± 0.0022	0.105 ± 0.029	0.142 ± 0.058	0.167 ± 0.027
